Legend:
[1] = test system: VLA-4-overexpressing B16F10 mouse melanoma cells; assay: Cell internalization assay; assay type: cell-based; settings: 10 pmol per well
[2] = test system: C57BL/6 mice bearing B16F10 xenografts
in vivo [3] = settings: female, C57BL/6, mouse, iv, total radioactivity
in vivo [4] = settings: female, C57BL/6, mouse, tumor and muscle, iv, total radioactivity

## Cc1ccccc1NC(=O)Nc1ccc(CC(=O)N[C@@H](CCCCNC(=O)/C=C/c2cccnc2)C(=O)N[C@@H](CCCC(=O)O)C(=O)NC2(C(=O)NCCOCCOCCOCCOCC(=O)N[C@@H](CCCCNC(=S)Nc3ccc(CCCN(CCN4CCN(CC(=O)O)CCN(CC(=O)O)CC4)CC(=O)O)cc3)C(N)=O)CCCCC2)cc1 [^64Cu-NE3TA-PEG4-LLP2A, metal not drawn]
[1]; time points 15 min, 1 h, 2 h, 4 h
  time at which internalization became saturated: ~ 2 h
[1]; up to 4 h, blocking with unlabeled LLP2A-PEG4 10 μg per well
  specific internalization (total minus blocked): High specific internalization
[2]; biodistribution
  liver and kidney uptake: relatively low
[2]; coinjection of excess unlabeled LLP2A-PEG4 (100 μg)
  uptake in tumor, spleen, bone, lung, and thymus with blocking: significantly reduced
In vivo [3]; tumor and blood
  tissue to tissue ratio at 4 h: 16.8 ± 1.8
In vivo [3]; tumor and muscle
  tissue to tissue ratio at 24 h: 25.2 ± 7.8
In vivo [4]
  tissue to tissue ratio at 2 h: 13.1 ± 2.4
  tissue to tissue ratio at 4 h: 30.9 ± 0.7

Source: paper PMC4949121 (Inorganic chemistry, 2016)
